Assay results published in US20240150474A1 (Regeneron, published 2024).

Assays:
[1] = molecular target: T1, dimeric human BMPR1A (human, UniProt P36894 24-152, limits assumed); assay: SPR Biacore T200, mAb captured by anti-human Fab, dimeric receptor injected, 25C
T1 construct: Construct and dimerising part not described; also called Human Receptor BMPR1A
Description: (§1) ACVR1 mAbs were tested for cross-reactivity to a panel of bone morphogenic protein type 1 receptors including human and mouse ACVR1, BMPR1A, and BMPR1B, as well as ACVRL1 on a Biacore T200 as follows. In order to measure the specificity of ACVR1 mAbs, ACVR1 mAbs were captured with anti-human Fab immobilized on a CM5 chip. 100 nM or 10 nM of dimeric human or mouse ACVR1, ACVRL1, BMPR1A or BMPR1B were injected at 30 μL/min for 2 min (duplicate injections) and the experiment was performed at 25° C. Binding of different receptors to the captured mAb was determined using Scrubber 2.0c software.

[2] = molecular target: T2, dimeric mouse BMPR1A (mouse, UniProt P36895 24-152, limits assumed); assay: as above
T2 construct: Construct and dimerising part not described; also called Mouse Receptor BMPR1A
T2 sequence (P36895 24-152 limits assumed): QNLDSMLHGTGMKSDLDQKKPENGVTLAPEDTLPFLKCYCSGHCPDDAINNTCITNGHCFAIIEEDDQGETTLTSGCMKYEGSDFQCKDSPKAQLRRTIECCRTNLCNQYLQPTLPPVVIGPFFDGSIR
Description: as §1

[3] = molecular target: T3, dimeric human ACVRL1 (human, UniProt P37023 22-118, limits assumed); assay: as above
T3 construct: Construct and dimerising part not described; also called Human Receptor ACVRL1
T3 sequence (P37023 22-118 limits assumed): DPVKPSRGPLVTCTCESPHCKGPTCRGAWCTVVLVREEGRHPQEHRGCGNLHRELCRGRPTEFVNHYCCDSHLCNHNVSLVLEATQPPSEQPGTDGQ
Description: as §1

[4] = molecular target: T4, mouse ACVR1 extracellular domain expressed with a C-terminal myc-myc-hexahistidine tag (mouse); assay: SPR Biacore T200, mAb captured by anti-human Fc, mACVR1-mmh injected, 37C
T4 construct: also called mACVR1-mmh; mACVR1.mmh
T4 chain: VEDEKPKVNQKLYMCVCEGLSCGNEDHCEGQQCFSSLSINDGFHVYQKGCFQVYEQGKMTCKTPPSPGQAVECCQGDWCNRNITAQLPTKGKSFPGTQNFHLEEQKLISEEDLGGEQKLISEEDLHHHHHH
Description: Equilibrium dissociation constants (KD) for ACVR1 binding to purified anti-ACVR1 monoclonal antibodies were determined using a real-time surface plasmon resonance (SPR) based Biacore T200 biosensor. All binding studies were performed in 10 mM HEPES, 150 mM NaCl, 3 mM EDTA, and 0.05% v/v surfactant Tween-20, pH 7.4 (HBS-EP) running buffer at […]. The Biacore CM5 sensor surface was first derivatized by amine coupling with a monoclonal mouse anti-human Fc antibody (REGN2567) to capture anti-ACVR1 monoclonal antibodies. Different concentrations of ACVR1 reagents, human ACVR1 extracellular domain expressed with a C-terminal myc-myc-hexahistidine tag (hACVR1-mmh; REGN3111, SEQ ID NO: 63), mouse ACVR1 extracellular domain expressed with a C-terminal myc-myc-hexahistidine tag (mACVR1-mmh; REGN3407, SEQ ID NO: 65), human ACVR1 extracellular domain expressed with a C-terminal mouse IgG2a Fc tag (hACVR1-mFc; REGN3112, SEQ ID NO: 64); and mouse ACVR1 extracellular domain expressed with a C-terminal mouse IgG2a Fc tag (mACVR1-mFc, R&D system), at concentrations ranging from 0.41 nM to 100 nM in a series of 3-fold dilutions prepared in HBS-EP running buffer were injected at a flow rate of 50 μL/min for 1.5 minutes. The dissociation of different ACVR1 reagents bound to anti-ACVR1 monoclonal antibodies was monitored for 20 minutes in HBS-EP running buffer. At the end of each cycle, the anti-ACVR1 monoclonal antibodies capture surface was regenerated using a 12 sec injection of 20 mM H3PO4. The association rate (ka) and dissociation rate (kd) were determined by fitting the real-time binding sensorgrams to a 1:1 binding model with mass transport limitation using Scrubber 2.0c curve-fitting software. Binding dissociation equilibrium constant (KD) and dissociative half-life (t½) were calculated from the kinetic rates as: […]
Binding kinetics parameters for different ACVR1 reagents to anti-ACVR1 monoclonal antibodies of the invention at 37° C. are shown in Table 5 through Table 8.

[5] = molecular target: T5, dimeric mouse BMPR1B (mouse, UniProt P36898 14-126, limits assumed); assay: SPR Biacore T200, mAb captured by anti-human Fab, 100 nM dimeric receptor injected, 25C
T5 construct: Construct and dimerising part not described; also called Mouse Receptor BMPR1B
T5 sequence (looked up): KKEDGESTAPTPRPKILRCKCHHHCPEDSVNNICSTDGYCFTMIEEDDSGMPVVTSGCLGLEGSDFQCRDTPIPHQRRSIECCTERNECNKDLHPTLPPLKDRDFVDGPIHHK
Description: as §1

[6] = molecular target: T1, dimeric human BMPR1A; assay: as above
Description: as §1

[7] = molecular target: T2, dimeric mouse BMPR1A; assay: as above
Description: as §1

[8] = molecular target: T6, dimeric human ACVR1 (human, UniProt Q04771 21-123, limits assumed); assay: as above
T6 construct: ACVR1'; also called Human Receptor ACVR1
T6 sequence (looked up): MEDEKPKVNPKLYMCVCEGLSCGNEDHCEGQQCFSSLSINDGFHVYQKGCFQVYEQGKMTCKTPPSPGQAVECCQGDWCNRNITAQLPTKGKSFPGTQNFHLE
Description: as §1

[9] = molecular target: T3, dimeric human ACVRL1; assay: as above
Description: as §1

[10] = molecular target: T7, dimeric mouse ACVR1 (mouse, UniProt P37172 21-123, limits assumed); assay: as above
T7 construct: also called Mouse Receptor ACVR1
T7 sequence (looked up): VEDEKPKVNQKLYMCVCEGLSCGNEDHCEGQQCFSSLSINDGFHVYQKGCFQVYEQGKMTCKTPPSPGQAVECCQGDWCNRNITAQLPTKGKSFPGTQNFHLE
Description: as §1

[11] = molecular target: T8, dimeric mouse ACVRL1 (mouse, UniProt Q61288 23-119, limits assumed); assay: as above
T8 construct: Construct and dimerising part not described; also called Mouse Receptor ACVRL1
T8 sequence (looked up): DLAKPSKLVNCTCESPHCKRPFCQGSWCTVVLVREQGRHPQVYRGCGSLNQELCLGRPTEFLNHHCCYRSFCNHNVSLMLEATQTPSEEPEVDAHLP
Description: as §1

T1 sequence (P36894 24-152 limits assumed): as the sequence (P36895 24-152 limits assumed) above, with L16S, P21S, T74A counted along it

B1: REGN 5166 (antibody, human IgG4 S228P, kappa, V domains shown)
VH: QVQLVESGGGVVQPGRSLRLSCAASGFTFSAYWMHWVRQAPGKGLEWVAVISYDGSNKYYADSVKGRFTISRDHSKNTLYLQMNSLRAEDTAVYYCAKGDAYDSWRILLGGDYYGMDVWGQGTTVTVSS
VL: EIVLTQSPGTLSLSPGERATLSCRASQSVSSSYLAWYQQKPGQAPRPLIYGASSRATGIPDRFSGSGSGTDFTLTISRLEPEDFAVYYCQQGGDAPPYTFGGGTKVEIKR
notes: also called REGN 5166-L1
B1: no binding (tested: 100 nM) [1]; no binding (tested: 100 nM) [2]; no binding (tested: 100 nM) [3]. The “100 nM Ag Bound (RU)” value [4] was 43 RU, the Kd [4] was 0.268 nM and the koff [4] was 0.000181 s⁻¹. For the same binder, the kon [4] was 674000 M⁻¹ s⁻¹, the t½ [4] was 1.07 h and the “100 nM Mouse Receptor Binding” value [5] was 1 RU. The “100 nM Human Receptor Binding” value [6] was 2 RU, the “100 nM Mouse Receptor Binding” value [7] was 9 RU and the “100 nM Human Receptor Binding” value [8] was 147 RU. For the same binder, the “100 nM Human Receptor Binding” value [9] was 4 RU, the “100 nM Mouse Receptor Binding” value [10] was 141 RU and the “100 nM Mouse Receptor Binding” value [11] was 4 RU.

B2: REGN 5167 (antibody, human IgG4 S228P, kappa, V domains shown)
VH: QLQLQESGPGLVKPSETLSLTCTVSGGSITSSSYYWAWIRQPPGKGLEWIGKIYYSGSTHYNPSLKSRVTISVDTSKNQFSLKLSSVTAADTAVYYCARVGGHGYGDSAGLAFDIWGQGTMVTVSS
VL: EIVLTQSPGTLSLSPGERATLSCRASQSVSSAFLAWYQQKPGQAPRLLIYGASYRHTGIPDRFSGSGSGTDFTLTISRLEPEDFAVYYCQHYGVGPRTFGGGTKVEIKR
notes: also called REGN 5167-L1
B2: no binding (tested: 100 nM) [1]; no binding (tested: 100 nM) [2]; no binding (tested: 100 nM) [3]. The “100 nM Ag Bound (RU)” value [4] was 43 RU, the Kd [4] was 0.226 nM and the koff [4] was 0.000161 s⁻¹. The kon [4] was 713000 M⁻¹ s⁻¹, the t½ [4] was 1.2 h and the “100 nM Mouse Receptor Binding” value [5] was 1 RU. The “100 nM Human Receptor Binding” value [6] was 2 RU, the “100 nM Mouse Receptor Binding” value [7] was 3 RU and the “100 nM Human Receptor Binding” value [8] was 130 RU. The “100 nM Human Receptor Binding” value [9] was 1 RU, the “100 nM Mouse Receptor Binding” value [10] was 130 RU and the “100 nM Mouse Receptor Binding” value [11] was 1 RU.

B3: REGN 5168 (antibody, human IgG4 S228P, kappa, V domains shown)
VH: QVQLVQSGAEVKEPGASVKVSCKASGYTFAEYYMHWVRQAPGQGLEWMGAINPSGSHTSYAQKFQGRVTMTRDTSTSTVYMELSSLRSEDTAVYYCARSISGKRGGDYYGMDVWGQGTTVTVSS
VL: DIQMTQSPSTLSASVGDRVTITCRASQSISSWLAWYQQKPGKAPKLLIYKASSLESGVPSRFSGSGSGTEFTLTISSLQPDDFATYYCQQYSIFPFTFGGGTKVEIKR
notes: also called REGN 5168-L1
B3: no binding (tested: 100 nM) [1]; no binding (tested: 100 nM) [2]; no binding (tested: 100 nM) [3]. The “100 nM Ag Bound (RU)” value [4] was 42 RU, the Kd [4] was 1.24 nM and the koff [4] was 0.00167 s⁻¹. For the same binder, the kon [4] was 1.34e+06 M⁻¹ s⁻¹, the t½ [4] was 0.117 h and the “100 nM Mouse Receptor Binding” value [5] was 1 RU. For the same binder, the “100 nM Human Receptor Binding” value [6] was 2 RU, the “100 nM Mouse Receptor Binding” value [7] was 8 RU and the “100 nM Human Receptor Binding” value [8] was 147 RU. For the same binder, the “100 nM Human Receptor Binding” value [9] was 2 RU, the “100 nM Mouse Receptor Binding” value [10] was 140 RU and the “100 nM Mouse Receptor Binding” value [11] was 3 RU.
